{"source": "patent US7101851", "about": "(dated 2006)", "binders": {"B1": {"name": "IGE146 (peptide)", "peptide": "VQCPHFCYVGEALCPDVCYV-NH2", "modifications": "disulfide 7-14, 3-18; N-terminus assumed", "SMILES": "CC(C)C[C@@H]1NC(=O)[C@H](C)NC(=O)[C@H](CCC(=O)O)NC(=O)CNC(=O)[C@H](C(C)C)NC(=O)[C@H](Cc2ccc(O)cc2)NC(=O)[C@@H]2CSSC[C@H](NC1=O)C(=O)N1CCC[C@H]1C(=O)N[C@@H](CC(=O)O)C(=O)N[C@@H](C(C)C)C(=O)N[C@H](C(=O)N[C@@H](Cc1ccc(O)cc1)C(=O)N[C@H](C(N)=O)C(C)C)CSSC[C@H](NC(=O)[C@H](CCC(N)=O)NC(=O)[C@@H](N)C(C)C)C(=O)N1CCC[C@H]1C(=O)N[C@@H](Cc1c[nH]cn1)C(=O)N[C@@H](Cc1ccccc1)C(=O)N2"}, "B2": {"name": "IGE169 (peptide)", "peptide": "VQCPHFCYFGAELCPAVCYV-NH2", "modifications": "disulfide 7-14, 3-18; N-terminus assumed", "SMILES": "CC(C)C[C@@H]1NC(=O)[C@H](CCC(=O)O)NC(=O)[C@H](C)NC(=O)CNC(=O)[C@H](Cc2ccccc2)NC(=O)[C@H](Cc2ccc(O)cc2)NC(=O)[C@@H]2CSSC[C@H](NC1=O)C(=O)N1CCC[C@H]1C(=O)N[C@@H](C)C(=O)N[C@@H](C(C)C)C(=O)N[C@H](C(=O)N[C@@H](Cc1ccc(O)cc1)C(=O)N[C@H](C(N)=O)C(C)C)CSSC[C@H](NC(=O)[C@H](CCC(N)=O)NC(=O)[C@@H](N)C(C)C)C(=O)N1CCC[C@H]1C(=O)N[C@@H](Cc1c[nH]cn1)C(=O)N[C@@H](Cc1ccccc1)C(=O)N2"}, "B3": {"name": "IGE156 (peptide)", "peptide": "VQCPHFCYELDYELCPDVCYVGR", "modifications": "not fully specified (bridges); cysteine pairing not given here", "notes": "produced as Z-domain fusion in E. coli and released with trypsin"}, "B4": {"name": "IGE158 (peptide)", "peptide": "VQCPHFCYFGGAELC[NMeA]DVCYV-NH2", "modifications": "disulfide 7-15, 3-19; N-terminus assumed", "SMILES": "CC(C)C[C@@H]1NC(=O)[C@H](CCC(=O)O)NC(=O)[C@H](C)NC(=O)CNC(=O)CNC(=O)[C@H](Cc2ccccc2)NC(=O)[C@H](Cc2ccc(O)cc2)NC(=O)[C@@H]2CSSC[C@H](NC1=O)C(=O)N(C)[C@@H](C)C(=O)N[C@@H](CC(=O)O)C(=O)N[C@@H](C(C)C)C(=O)N[C@H](C(=O)N[C@@H](Cc1ccc(O)cc1)C(=O)N[C@H](C(N)=O)C(C)C)CSSC[C@H](NC(=O)[C@H](CCC(N)=O)NC(=O)[C@@H](N)C(C)C)C(=O)N1CCC[C@H]1C(=O)N[C@@H](Cc1c[nH]cn1)C(=O)N[C@@H](Cc1ccccc1)C(=O)N2"}, "B5": {"name": "IGE159 (peptide)", "peptide": "VQC[NMeA]HFCYFGGAELCPDVCYV-NH2", "modifications": "disulfide 7-15, 3-19; N-terminus assumed", "SMILES": "CC(C)C[C@@H]1NC(=O)[C@H](CCC(=O)O)NC(=O)[C@H](C)NC(=O)CNC(=O)CNC(=O)[C@H](Cc2ccccc2)NC(=O)[C@H](Cc2ccc(O)cc2)NC(=O)[C@@H]2CSSC[C@H](NC1=O)C(=O)N1CCC[C@H]1C(=O)N[C@@H](CC(=O)O)C(=O)N[C@@H](C(C)C)C(=O)N[C@H](C(=O)N[C@@H](Cc1ccc(O)cc1)C(=O)N[C@H](C(N)=O)C(C)C)CSSC[C@H](NC(=O)[C@H](CCC(N)=O)NC(=O)[C@@H](N)C(C)C)C(=O)N(C)[C@@H](C)C(=O)N[C@@H](Cc1c[nH]cn1)C(=O)N[C@@H](Cc1ccccc1)C(=O)N2"}, "B6": {"name": "IGE167 (peptide)", "peptide": "VQCPHFCYFGAELCPDVCYV-NH2", "modifications": "disulfide 7-14, 3-18; N-terminus assumed", "SMILES": "CC(C)C[C@@H]1NC(=O)[C@H](CCC(=O)O)NC(=O)[C@H](C)NC(=O)CNC(=O)[C@H](Cc2ccccc2)NC(=O)[C@H](Cc2ccc(O)cc2)NC(=O)[C@@H]2CSSC[C@H](NC1=O)C(=O)N1CCC[C@H]1C(=O)N[C@@H](CC(=O)O)C(=O)N[C@@H](C(C)C)C(=O)N[C@H](C(=O)N[C@@H](Cc1ccc(O)cc1)C(=O)N[C@H](C(N)=O)C(C)C)CSSC[C@H](NC(=O)[C@H](CCC(N)=O)NC(=O)[C@@H](N)C(C)C)C(=O)N1CCC[C@H]1C(=O)N[C@@H](Cc1c[nH]cn1)C(=O)N[C@@H](Cc1ccccc1)C(=O)N2"}}, "target": "T1, alpha subunit of the human FcεRI receptor (IgE high affinity receptor), expressed on Chinese hamster ovary … (human, UniProt P12319 26-257)", "T1 construct": "whole, on cells; also called CHO FcεRI+ cells; FcεRIα", "T1 sequence (looked up)": "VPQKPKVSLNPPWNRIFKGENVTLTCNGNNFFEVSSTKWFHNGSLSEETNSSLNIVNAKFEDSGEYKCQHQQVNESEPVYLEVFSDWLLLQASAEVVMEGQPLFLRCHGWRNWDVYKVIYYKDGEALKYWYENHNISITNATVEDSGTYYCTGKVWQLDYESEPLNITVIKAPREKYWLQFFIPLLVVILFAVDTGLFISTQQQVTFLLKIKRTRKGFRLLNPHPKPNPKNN", "assay": "inhibition of 125I-IgE binding to CHO cells expressing human FcεRI alpha; competitor IgE", "procedure": "To determine the ability of peptides to inhibit IgE binding to FcεRI, a cell-based binding assay was used with radiolabeled IgE. Chinese hamster ovary cells expressing the alpha subunit of the human FcεRI receptor were cultured overnight in Falcon 96 well microtiter plates at a concentration of 5 ×10^4 cells per well. The following day the cells were rinsed three times with PBS and then once with F12/DMEM. Peptide stocks were reconstituted in 100 mM Hepes buffered water, pH 7.2, at a concentration of 5 mg/mL. Working concentrations of the peptide were diluted in assay buffer (see below). 75 uL of a desired concentration of peptide was added to the top row of a separate 96 well microtiter plate and serially diluted 1:3 in 50 uL of the assay buffer (F12/DMEM, 1% BSA, 0.05% NaN_3 and 0.025 mM Hepes pH 7.2). Starting concentrations ranged from 50–500 uM. Next, 50 uL of the diluted peptide was transferred to the 96 microtiter well plate containing a monolayer of CHO FcεRI+ cells. […] Cells were […]", "note": "Bridges are numbered along the chain shown (N, C = ends). Where no end group is shown, it is not given here. [ ]: non-standard residue; d: D form. Pip = O=C(O)[C@@H]1CCCCN1; dPip = O=C(O)[C@H]1CCCCN1; hCys = N[C@@H](CCS)C(=O)O; NMeA = CN[C@@H](C)C(=O)O", "data": [{"binder": "B1", "values": [{"measurement": "IC50", "value": 890, "unit": "nM"}]}, {"binder": "VQCPHFCYFGGAELCPDVCYV (not fully specified (bridges); cysteine pairing not given here)", "note": "[IGE151]", "values": [{"measurement": "IC50", "value": 130, "unit": "nM"}]}, {"binder": "VQCPHFCYFGAELCPDVCYV (disulfide 7-14, 3-18)", "note": "[IGE152]", "values": [{"measurement": "IC50", "value": 52, "unit": "nM"}]}, {"binder": "B2", "values": [{"measurement": "IC50", "value": 128, "unit": "nM"}]}, {"binder": "VQCPHFCYELDYELCPDVCY-NH2 (not fully specified (bridges); cysteine pairing not given here)", "note": "[IGE153]", "values": [{"measurement": "IC50", "value": 49, "unit": "nM"}]}, {"binder": "CPHFCYELDYELCPDVCY-NH2 (not fully specified (bridges); cysteine pairing not given here)", "note": "[IGE155]", "values": [{"measurement": "IC50", "value": 69, "unit": "nM"}]}, {"binder": "B3", "values": [{"measurement": "IC50", "value": 30, "unit": "nM"}]}, {"binder": "QCPHFCYELDYELCPDVCY-NH2 (not fully specified (bridges); cysteine pairing not given here)", "note": "[IGE157]", "values": [{"measurement": "IC50", "value": 107, "unit": "nM"}]}, {"binder": "B4", "values": [{"measurement": "IC50", "value": 1080, "unit": "nM"}]}, {"binder": "B5", "values": [{"measurement": "IC50", "value": 380, "unit": "nM"}]}, {"binder": "VQCPHFCYFGGAELC[dPip]DVCYV-NH2 (disulfide 7-15, 3-19)", "note": "[IGE161-1]", "values": [{"measurement": "IC50", "value": 41000, "unit": "nM"}]}, {"binder": "VQCPHFCYFGGAELC[Pip]DVCYV-NH2 (disulfide 7-15, 3-19)", "note": "[IGE161-2]", "values": [{"measurement": "IC50", "value": 680, "unit": "nM"}]}, {"binder": "VQC[dPip]HFCYFGGAELCPDVCYV-NH2 (disulfide 7-15, 3-19)", "note": "[IGE162-1]", "values": [{"measurement": "IC50", "value": 4090, "unit": "nM"}]}, {"binder": "VQC[Pip]HFCYFGGAELCPDVCYV-NH2 (disulfide 7-15, 3-19)", "note": "[IGE162-2]", "values": [{"measurement": "IC50", "value": 430, "unit": "nM"}]}, {"binder": "VQCPHFCYFGGAEL[hCys]PDVCYV-NH2 (disulfide (positions not given here))", "note": "[IGE164]", "values": [{"measurement": "IC50", "value": 40700, "unit": "nM"}]}, {"binder": "VQCPHFCYFGGAELCPDV[hCys]YV-NH2 (disulfide (positions not given here))", "note": "[IGE165]", "values": [{"measurement": "IC50", "value": 1170, "unit": "nM"}]}, {"binder": "VQCPHF[hCys]YFGGAELCPDVCYV-NH2 (disulfide 7-15, 3-19)", "note": "[IGE166]", "values": [{"measurement": "IC50", "value": 65000, "unit": "nM"}]}, {"binder": "B6", "values": [{"measurement": "IC50", "value": 120, "unit": "nM"}]}]}
